Results from patent US6677436.
Positions count from the first letter of the chain named.

B1: H chain humanized version a/L chain chimeric antibody (antibody, V domains shown)
VH: QVQLLESGAVLARPGTSVKISCKASGFNIKDYYMHWVKQRPGQGLEWIGGNDPANGHSMYDPKFQGRAKLTAATSASIAYLEFSSLTNEDSAVYYCARDSGYAMDYWGQGTLVTVSS
VL: DIKMTQSPSSMYASLGERVTITCKASQDIKSFLSWYQQKPWKSPKTLIYYATSLADGVPSRFSGSGSGQDYSLTINNLESDDTATYYCLQHGESPYTFGGGTKLEIK
notes: Expressed from vector N5KG4P (IgG4-type, human Cgamma4 and Ckappa); also called a-ch; hHva-chLv/N5KG4P
B2: H chain humanized version c/L chain chimeric antibody (antibody, V domains shown)
VH: QVQLLESGAVLARPGTSVKISCKASGFNIKDYYMHWVKQRPGQGLEWIGGNDPANGHSMYDPKFQGRVTMLVDTSKNQFSLRLSSVTAADTAVYYCARDSGYAMDYWGQGTLVTVSS
VL: B1 VL
notes: Expressed from vector N5KG4P (IgG4-type, human Cgamma4 and Ckappa); also called c-ch; hHvc-chLv/N5KG4P
B3: H chain humanized version a/L chain humanized version a antibody (antibody, V domains shown)
VH: B1 VH
VL: DIQMTQSPSSLSASVGDRVTITCKASQDIKSFLSWYQQKPGKAPKLLIYYATSLADGVPSRFSGSGSGTDFTLTISSLQPEDFATYYCLQHGESPYTFGGGTKVEIK
notes: Expressed from vector N5KG4P (IgG4-type, human Cgamma4 and Ckappa); also called hHva-hLva/N5KG4P
B4: H chain chimeric/L chain humanized version b antibody (antibody, V domains shown)
VH: EVQLQQSGTNLVRPGALVKLSCKGSGFNIKDYYMHWVKQRPEQGLEWIGGNDPANGHSMYDPKFQGKASITADTSSNTAYLQLSSLTSEDTAVYFCARDSGYAMDYWGQGTSVTVSS
VL: B3 VL with F71Y
notes: Expressed from vector N5KG4P (IgG4-type, human Cgamma4 and Ckappa); also called ch-b; chHv-hLvb/N5KG4P
B5: H chain humanized version b/L chain chimeric antibody (antibody, V domains shown)
VH: QVQLLESGAVLARPGTSVKISCKASGFNIKDYYMHWVKQRPGQGLEWIGGNDPANGHSMYDPKFQGRVTITADTSTNTAYMELSSLRSEDTAIYYCARDSGYAMDYWGQGTLVTVSS
VL: B1 VL
notes: Expressed from vector N5KG4P (IgG4-type, human Cgamma4 and Ckappa); also called b-ch; hHvb-chLv/N5KG4P
B6: H chain humanized version g/L chain humanized version b antibody (antibody, V domains shown)
VH: B5 VH with R67K, V68A, I70L, T74E, T76S, N77S, E82Q, T91S, I93V, Y95S
VL: B3 VL with F71Y
notes: Expressed from vector N5KG4P (IgG4-type, human Cgamma4 and Ckappa); also called g-b; hHvg-hLvb/N5KG4P
B7: H chain humanized version d/L chain chimeric antibody (antibody, V domains shown)
VH: B5 VH with T74E, N77S, T91S, I93V, Y95F
VL: B1 VL
notes: Expressed from vector N5KG4P (IgG4-type, human Cgamma4 and Ckappa); also called d-ch; hHvd-chLv/N5KG4P
B8: H chain humanized version i/L chain humanized version b1 antibody (antibody, V domains shown)
VH: B5 VH with N77S, A79V, Y80F, I93V
VL: B3 VL with Y36F, A43S, L46T, F71Y
notes: Expressed from vector N5KG4P (IgG4-type, human Cgamma4 and Ckappa); also called i-b1; hHvi-hLvb1/N5KG4P
B9: H chain humanized version b/L chain humanized version c antibody (antibody, V domains shown)
VH: B5 VH
VL: B3 VL with F71Y, F83I
notes: Humanized antibodies were expressed from vector N5KG4P (IgG4-type); the construction of the b-c plasmid itself is not described; also called b-c
B10: H chain humanized version b/L chain humanized version a antibody (antibody, V domains shown)
VH: B5 VH
VL: B3 VL
notes: Expressed from vector N5KG4P (IgG4-type, human Cgamma4 and Ckappa); also called b-a; hHvb-hLva/N5KG4P
B11: H chain humanized version e/L chain chimeric antibody (antibody, V domains shown)
VH: B5 VH with T69S, T74E, N77K, T78I, S84N, I93V, Y95F
VL: B1 VL
notes: Expressed from vector N5KG4P (IgG4-type, human Cgamma4 and Ckappa); also called e-ch; hHve-chLv/N5KG4P
B12: H chain chimeric/L chain humanized version a antibody (antibody, V domains shown)
VH: B4 VH
VL: B3 VL
notes: Expressed from vector N5KG4P (IgG4-type, human Cgamma4 and Ckappa); also called chHv-hLva/N5KG4P
B13: H chain humanized version b3/L chain humanized version b antibody (antibody, V domains shown)
VH: B5 VH with K38R, R40A
VL: B3 VL with F71Y
notes: Expressed from vector N5KG4P (IgG4-type, human Cgamma4 and Ckappa); also called b3-b; hHvb3-hLvb/N5KG4P
B14: H chain humanized version i/L chain chimeric antibody (antibody, V domains shown)
VH: B5 VH with N77S, A79V, Y80F, I93V
VL: B1 VL
notes: Expressed from vector N5KG4P (IgG4-type, human Cgamma4 and Ckappa); also called i-ch; hHvi-chLv/N5KG4P
B15: H chain humanized version b/L chain humanized version b2 antibody (antibody, V domains shown)
VH: B5 VH
VL: B3 VL with G41E, L46S, F71Y
notes: Expressed from vector N5KG4P (IgG4-type, human Cgamma4 and Ckappa); also called b-b2; hHvb-hLvb2/N5KG4P
B16: H chain chimeric/L chain humanized version c antibody (antibody, V domains shown)
VH: B4 VH
VL: B3 VL with F71Y, F83I
notes: Expressed from vector N5KG4P (IgG4-type, human Cgamma4 and Ckappa); also called ch-c; chHv-hLvc/N5KG4P
B17: H chain humanized version d3/L chain humanized version b antibody (antibody, V domains shown)
VH: B5 VH with K38R, R40A, T74E, N77S, T91S, I93V, Y95F
VL: B3 VL with F71Y
notes: Expressed from vector N5KG4P (IgG4-type, human Cgamma4 and Ckappa); also called d3-b; hHvd3-hLvb/N5KG4P
B18: H chain humanized version i/L chain humanized version b2 antibody (antibody, V domains shown)
VH: B5 VH with N77S, A79V, Y80F, I93V
VL: B3 VL with G41E, L46S, F71Y
notes: Expressed from vector N5KG4P (IgG4-type, human Cgamma4 and Ckappa); also called i-b2; ib2
B19: H chain humanized version i/L chain humanized version b antibody (antibody, V domains shown)
VH: B5 VH with N77S, A79V, Y80F, I93V
VL: B3 VL with F71Y
notes: Expressed from vector N5KG4P (IgG4-type, human Cgamma4 and Ckappa); also called hHvi-hLvb/N5KG4P

target: T1, human tissue factor (TF) on human bladder carcinoma cells J82 (human, UniProt P13726 33-295); test: cell ELISA on fixed J82 cells
T1 construct: whole, on cells; J82 is described as a TF-high expression cell line; also called the antigen; J82 (ATCC HTB-1)
T1 sequence (P13726 33-295): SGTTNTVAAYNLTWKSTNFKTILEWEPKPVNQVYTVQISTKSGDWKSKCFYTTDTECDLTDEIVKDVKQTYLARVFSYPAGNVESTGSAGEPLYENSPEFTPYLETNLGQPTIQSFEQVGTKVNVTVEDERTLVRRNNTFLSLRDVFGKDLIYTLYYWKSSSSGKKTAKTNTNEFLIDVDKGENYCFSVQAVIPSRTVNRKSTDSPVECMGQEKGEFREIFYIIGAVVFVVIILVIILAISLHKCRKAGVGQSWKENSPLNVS

Row | Binder | binding result
1 | B1 | binds
2 | B2 | binds
3 | B3 | binds
4 | B4 | binds
5 | B5 | binds
6 | B6 | binds
7 | B7 | binds
8 | B8 | binds
9 | B9 | binds
10 | B10 | binds
11 | B11 | binds
12 | B12 | binds
13 | B13 | binds
14 | B14 | binds
15 | B15 | binds
16 | B16 | binds
17 | B17 | binds

target: recombinant Protein G (UniProt P19909); test: BIACORE; 10 µl of 72 nM antibody injected over Protein G immobilized on CM5 chip

Row | Binder | RU bound
18 | B18 | 1000 RU

target: T2, soluble human TF (human TF amino acids 1-219 with the FLAG peptide at the C-terminal) (human, UniProt P13726 33-251); test: BIACORE; antibody captured on Protein G chip, soluble TF as analyte; mean ± SD, n = 3
T2 construct: Expressed in CHO cells and purified; The entry is the whole soluble TF construct (TF 1-219 plus FLAG peptide M2); The entry may include the signal peptide; also called shTF; soluble TF
T2 sequence (P13726 other isoform, or with tags, fused parts or gaps limits assumed): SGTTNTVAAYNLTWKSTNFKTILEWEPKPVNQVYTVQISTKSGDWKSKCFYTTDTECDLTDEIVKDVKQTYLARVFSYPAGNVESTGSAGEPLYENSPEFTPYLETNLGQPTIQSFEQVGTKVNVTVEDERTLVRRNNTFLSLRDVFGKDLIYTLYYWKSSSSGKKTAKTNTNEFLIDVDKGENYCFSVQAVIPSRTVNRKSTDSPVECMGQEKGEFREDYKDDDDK

Row | Binder | Kd | koff | kon
19 | B19 | 1.39 nM | 0.000649 s⁻¹ | 467000 M⁻¹ s⁻¹
20 | B18 | 1.17 nM | 0.000635 s⁻¹ | 544000 M⁻¹ s⁻¹
